This note sets out measurements from paper PMC10923064.

The target in series [1] is T1, human RPA (RPA70/RPA32/RPA14) (human, UniProt P27694;P15927;P35244 1-616;1-270;1-121). The series is described as follows: fluorescence anisotropy. (In fluorescence polarisation assays a small probe gives low polarisation when free and higher when bound to something large.)
Series [2] deals with T1, human RPA (RPA70/RPA32/RPA14). The experiment in a line: stopped-flow Trp fluorescence.

T1 sequence (P27694 whole entry, chain 1 of 3): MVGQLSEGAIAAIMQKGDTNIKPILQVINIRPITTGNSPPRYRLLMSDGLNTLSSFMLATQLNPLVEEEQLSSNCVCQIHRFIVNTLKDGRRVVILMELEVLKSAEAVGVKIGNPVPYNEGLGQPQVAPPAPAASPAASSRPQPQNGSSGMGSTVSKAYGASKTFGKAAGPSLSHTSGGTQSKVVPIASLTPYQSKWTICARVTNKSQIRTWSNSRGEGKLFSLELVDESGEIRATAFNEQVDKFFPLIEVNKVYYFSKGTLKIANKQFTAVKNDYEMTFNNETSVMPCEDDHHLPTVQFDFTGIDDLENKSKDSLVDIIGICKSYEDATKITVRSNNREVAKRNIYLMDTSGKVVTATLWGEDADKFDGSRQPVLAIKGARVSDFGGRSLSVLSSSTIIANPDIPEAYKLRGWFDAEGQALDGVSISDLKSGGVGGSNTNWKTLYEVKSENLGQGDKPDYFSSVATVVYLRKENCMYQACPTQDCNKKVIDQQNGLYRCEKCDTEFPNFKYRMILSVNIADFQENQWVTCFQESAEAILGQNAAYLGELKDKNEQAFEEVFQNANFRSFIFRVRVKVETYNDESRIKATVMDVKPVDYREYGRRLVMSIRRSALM
T1 sequence (P15927 whole entry, chain 2 of 3): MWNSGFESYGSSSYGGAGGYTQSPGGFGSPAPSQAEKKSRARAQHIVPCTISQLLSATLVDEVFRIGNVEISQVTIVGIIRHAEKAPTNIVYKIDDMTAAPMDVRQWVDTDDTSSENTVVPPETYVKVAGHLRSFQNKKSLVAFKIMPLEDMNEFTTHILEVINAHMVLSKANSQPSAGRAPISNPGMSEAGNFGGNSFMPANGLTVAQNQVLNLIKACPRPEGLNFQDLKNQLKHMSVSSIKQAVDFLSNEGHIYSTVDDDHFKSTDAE
T1 sequence (P35244 whole entry, chain 3 of 3): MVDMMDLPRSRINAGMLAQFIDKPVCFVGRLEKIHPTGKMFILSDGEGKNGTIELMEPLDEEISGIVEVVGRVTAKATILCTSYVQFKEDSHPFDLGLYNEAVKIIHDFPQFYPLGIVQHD

For the molecule TTTTTTTTTTTTTTTTTTTTTTTTTTTTTTTTTTT (ssDNA) [5'-FAM-(dT)35], the binding result in series [1] was “binds”. TTTTTTTTTTTTTTTTTTTTTTTTTTTTTTTTTTT (ssDNA) [(dT)35]: in series [2], the binding result is reported as “binds”.
